Assay results from patent publication US20250137032A1, “TWO-COMPONENT SYSTEMS FOR USE IN CELL-FREE GENE EXPRESSION” (priority 2023, published 2025).
Entries after “also recorded” stand apart in the source; their conditions may differ.

Target: T1, NarX (Escherichia coli, UniProt P0AFA2, T450I/V366A)
T1 construct: All genes were; made in house; host or cells: cell-free expression in situ, myTXTL E. coli extract (Arbor Biosciences), with synthetic lipid vesicles
Assay: Cell-free NarX-L system encapsulated in giant unilamellar vesicles
Type: biochemical, E. coli
Conditions: GUV-encapsulated NarX-L, nitrate dependent signaling (FIG. 16)
Description: Over the last decade, many promising cell-free systems have been developed, enabling the delivery and sensing of a wide array of ligands in non-ideal environments. Cell-free systems have been encapsulated and administered to mice (47), lyophilized and used in resource limited settings (6, 7), and integrated into wearable materials to sense environmental contaminants (8). Towards the goal of creating cell-mimetic particles which can sense environmental stimuli in complex environments, such as the body, we encapsulated our cell-free system into giant unilamellar vesicles using the emulsion transfer method (FIG. 5A). We encapsulated cell-free extract containing plasmids encoding NarX, NarL, and the downstream protein (luciferase or mEGFP) into membranes composed of 1 POPC: 1 cholesterol and a rhodamine conjugated lipid. We hypothesized that by encapsulating cell-free reaction components into vesicles, NarX could insert into membranes and initiate signaling in response to exogenously added nitrate. […]
For samples containing the luciferase plasmid, 0.5 μL of NanoGlo Luciferase substrate was added to the reaction, and reactions were read on a Molecular Devices Spectra Max i3 plate reader. […] Images were analyzed using the Nikon NIS software.

T1 sequence (P0AFA2 other isoform, or with tags, fused parts or gaps V366A/T450I): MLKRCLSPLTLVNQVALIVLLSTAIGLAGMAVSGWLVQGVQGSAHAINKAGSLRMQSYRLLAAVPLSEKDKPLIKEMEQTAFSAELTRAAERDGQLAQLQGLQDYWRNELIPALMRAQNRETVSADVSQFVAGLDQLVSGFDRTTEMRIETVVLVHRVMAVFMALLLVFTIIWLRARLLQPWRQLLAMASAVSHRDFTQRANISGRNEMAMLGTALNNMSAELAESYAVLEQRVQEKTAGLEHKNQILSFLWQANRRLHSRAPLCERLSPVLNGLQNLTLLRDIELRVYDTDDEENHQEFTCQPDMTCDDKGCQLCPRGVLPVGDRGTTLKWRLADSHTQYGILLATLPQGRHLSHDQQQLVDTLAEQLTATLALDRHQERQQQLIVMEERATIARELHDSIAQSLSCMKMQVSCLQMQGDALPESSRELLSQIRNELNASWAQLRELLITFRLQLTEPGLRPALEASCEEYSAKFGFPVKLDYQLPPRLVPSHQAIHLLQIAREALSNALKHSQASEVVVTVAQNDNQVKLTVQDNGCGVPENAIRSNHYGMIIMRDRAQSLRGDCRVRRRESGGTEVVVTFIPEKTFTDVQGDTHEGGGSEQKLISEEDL

B1: Proteinase K: protease added to the outside of vesicles (protein, UniProt P06873 106-384, looked up)
Proteinase K: AAQTNAPWGLARISSTSPGTSTYYYDESAGQGSCVYVIDTGIEASHPEFEGRAQMVKTYYYSSRDGNGHGTHCAGTVGSRTYGVAKKTQLFGVKVLDDNGSGQYSTIIAGMDFVASDKNNRNCPKGVVASLSLGGGYSSSVNSAAARLQSSGVMVAVAAGNNNADARNYSPASEPSVCTVGASDRYDRRSSFSNYGSVLDIFGPGTSILSTWIGGSTRSISGTSMATPHVAGLAAYLMTLGKTTAASACRYIADTANKGDLSNIPFGTVNLLAYNNYQA
effect on encapsulated TCS signaling when added outside of vesicles: signaling was inhibited; also recorded: is inhibited
